Patent publication US20120316071A1 (published 2012)
One block for each binder: values may come before it.

Experiments:
[1] = biological target: T1, rHuman ErbB2/Fc Chimera, CF (R&D Systems Cat#1129-ER) (human, UniProt P04626 23-652); assay: ECL multispot (MSD), 20 nM Fab;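 further: purified Fab binding to antigens on multispot plates, read by electrochemiluminescence with a TAG-labelled detection antibody, 1 h Fab incubation at 20 °C, signal expressed relative to each well's blank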
T1 construct: Bought recombinant protein; also called human epidermal growth factor 2 receptor; Fc part of the bought chimera not given

[2] = biological target: T2, rHuman EGF R/Fc Chimera, CF (R&D Systems Cat#344-ER) (human, UniProt P00533 25-645); assay: ECL multispot (MSD), 20 nM Fab;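 further: purified Fab binding to antigens on multispot plates, read by electrochemiluminescence with a TAG-labelled detection antibody, 1 h Fab incubation at 20 °C, signal expressed relative to each well's blank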
T2 construct: Bought recombinant protein; also called epidermal growth factor receptor; Fc part of the bought chimera not given

[3] = biological target: T3, rHuman HGF R/c-MET/Fc Chimera, CF (R&D Systems Cat#358-MT/CF) (human, UniProt P08581 25-932); assay: ECL multispot (MSD), 20 nM Fab;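 further: purified Fab binding to antigens on multispot plates, read by electrochemiluminescence with a TAG-labelled detection antibody, 1 h Fab incubation at 20 °C, signal expressed relative to each well's blank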
T3 construct: Bought recombinant protein; also called HGF R/Fc; hepatocyte growth factor receptor; Fc part of the bought chimera not given

[4] = biological target: T4, rHuman Notch-1/Fc Chimera, CF (R&D Systems Cat#3647-TK) (human, UniProt P46531 19-526); assay: ECL multispot (MSD), 20 nM Fab;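 further: purified Fab binding to antigens on multispot plates, read by electrochemiluminescence with a TAG-labelled detection antibody, 1 h Fab incubation at 20 °C, signal expressed relative to each well's blank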
T4 construct: Bought recombinant protein; Fc part of the bought chimera not given

[5] = biological target: T5, rHuman CD44/Fc Chimera, CF (R&D Systems Cat#3660-CD) (human, UniProt P16070 21-220); assay: ECL multispot (MSD), 20 nM Fab
T5 construct: Bought recombinant protein; Fc part of the bought chimera not given

[6] = biological target: T6, rHuman IGF-1 sR, (IGF-1 sR), CF (R&D Systems Cat#391-GR) (human, UniProt P08069 31-932); assay: ECL multispot (MSD), 20 nM Fab
T6 construct: Bought recombinant soluble receptor; also called insulin-like growth factor-1 soluble receptor

[7] = biological target: T7, rHuman P-Cadherin/Fc Chimera, CF (R&D Systems Cat#861-PC) (human, UniProt P22223 108-654); assay: ECL multispot (MSD), 20 nM Fab
T7 construct: Bought recombinant protein; Fc part of the bought chimera not given

[8] = biological target: T8, rHuman Erythropoietin R/Fc Chimera, CF (R&D Systems Cat#963-ER) (human, UniProt P19235 25-250); assay: ECL multispot (MSD), 20 nM Fab
T8 construct: Bought recombinant protein; also called EPO R; EPO R/Fc; Fc part of the bought chimera not given
T8 sequence (looked up): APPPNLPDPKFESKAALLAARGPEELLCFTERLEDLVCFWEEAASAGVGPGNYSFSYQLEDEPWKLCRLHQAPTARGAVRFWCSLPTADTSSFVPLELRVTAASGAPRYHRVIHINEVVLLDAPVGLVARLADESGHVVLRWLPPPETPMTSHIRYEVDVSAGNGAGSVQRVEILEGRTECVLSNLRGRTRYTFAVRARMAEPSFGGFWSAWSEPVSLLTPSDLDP

[9] = biological target: T9, Recombinant Human DLL4 (R&D Systems Cat#1506-D4/CF) (human, UniProt Q9NR61 27-524); assay: ECL multispot (MSD), 20 nM Fab
T9 construct: Bought recombinant protein; also called delta-like protein 4; rHuman DLL4

[10] = biological target: T10, rHuman ErbB2/Fc Chimera, CF (R&D Systems Cat#1129-ER) (human, UniProt P04626 23-652); assay: ECL multispot (MSD) binding assay, antigens spotted on plate, 20 nM Fab;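 further: fab incubated 1 h at 20 °C on antigen-spotted wells, bound Fab detected by TAG-labelled antibody, ratio of 4 or more over blank counted as a hit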
T10 construct: Bought recombinant protein; also called human epidermal growth factor 2 receptor; Fc part of the bought chimera not given

[11] = biological target: T11, rHuman EGF R/Fc Chimera, CF (R&D Systems Cat#344-ER) (human, UniProt P00533 25-645); assay: as above
T11 construct: Bought recombinant protein; also called epidermal growth factor receptor; Fc part of the bought chimera not given

[12] = biological target: T12, rHuman HGF R/c-MET/Fc Chimera, CF (R&D Systems Cat#358-MT/CF) (human, UniProt P08581 25-932); assay: as above
T12 construct: Bought recombinant protein; also called HGF R/Fc; hepatocyte growth factor receptor; Fc part of the bought chimera not given

[13] = biological target: T13, rHuman Notch-1/Fc Chimera, CF (R&D Systems Cat#3647-TK) (human, UniProt P46531 19-526); assay: as above
T13 construct: Bought recombinant protein; Fc part of the bought chimera not given

[14] = biological target: T14, rHuman CD44/Fc Chimera, CF (R&D Systems Cat#3660-CD) (human, UniProt P16070 21-220); assay: as above
T14 construct: Bought recombinant protein; Fc part of the bought chimera not given

[15] = biological target: T15, rHuman IGF-1 sR, (IGF-1 sR), CF (R&D Systems Cat#391-GR) (human, UniProt P08069 31-932); assay: as above
T15 construct: Bought recombinant soluble receptor; The column head prints only 'IGF-1'; also called insulin-like growth factor-1 soluble receptor

[16] = biological target: T16, rHuman P-Cadherin/Fc Chimera, CF (R&D Systems Cat#861-PC) (human, UniProt P22223 108-654); assay: as above
T16 construct: Bought recombinant protein; Fc part of the bought chimera not given

[17] = biological target: T17, rHuman Erythropoietin R/Fc Chimera, CF (R&D Systems Cat#963-ER) (human, UniProt P19235 25-250); assay: as above
T17 construct: Bought recombinant protein; also called EPO R; Epo R; Fc part of the bought chimera not given
T17 sequence (looked up): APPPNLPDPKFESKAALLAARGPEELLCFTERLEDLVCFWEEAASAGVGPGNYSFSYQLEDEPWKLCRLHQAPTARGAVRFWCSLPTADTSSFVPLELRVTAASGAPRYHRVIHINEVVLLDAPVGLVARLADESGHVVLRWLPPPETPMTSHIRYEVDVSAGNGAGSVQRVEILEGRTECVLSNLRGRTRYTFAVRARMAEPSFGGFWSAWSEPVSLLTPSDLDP

[18] = biological target: T18, Recombinant Human DLL4 (R&D Systems Cat#1506-D4/CF) (human, UniProt Q9NR61 27-524); assay: as above
T18 construct: Bought recombinant protein; also called delta-like protein 4; rHuman DLL4

[19] = biological target: T19, rHuman Erythropoietin R/Fc Chimera, CF (R&D Systems Cat#963-ER) (human, UniProt P19235 25-250); assay: Multispot ECL (MSD), antigen spotted on plate, Fab 36 nM; blank spot 413
T19 construct: Bought recombinant protein; also called EPO R/Fc; Epo R; Fc part of the bought chimera not given
T19 sequence (looked up): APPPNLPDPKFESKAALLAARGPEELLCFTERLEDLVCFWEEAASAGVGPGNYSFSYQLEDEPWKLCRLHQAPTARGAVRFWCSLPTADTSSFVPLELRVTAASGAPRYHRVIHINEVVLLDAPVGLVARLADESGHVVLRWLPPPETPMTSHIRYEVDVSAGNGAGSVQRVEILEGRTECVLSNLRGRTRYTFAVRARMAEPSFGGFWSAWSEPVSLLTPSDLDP

[20] = biological target: T20, rHuman ErbB2/Fc Chimera, CF (R&D Systems Cat#1129-ER) (human, UniProt P04626 23-652); assay: as above
T20 construct: Bought recombinant protein; also called human epidermal growth factor 2 receptor (ErbB2); Fc part of the bought chimera not given

[21] = biological target: T21, rHuman HGF R/c-MET/Fc Chimera, CF (R&D Systems Cat#358-MT/CF) (human, UniProt P08581 25-932); assay: as above
T21 construct: Bought recombinant protein; also called HGF R/Fc; hepatocyte growth factor receptor (HGF R/c-Met); Fc part of the bought chimera not given

[22] = biological target: T22, rHuman CD44/Fc Chimera, CF (R&D Systems Cat#3660-CD) (human, UniProt P16070 21-220); assay: as above
T22 construct: Bought recombinant protein; Fc part of the bought chimera not given

[23] = biological target: T23, rHuman IGF-1 sR, CF (R&D Systems Cat#391-GR) (human, UniProt P08069 31-932); assay: as above
T23 construct: Bought recombinant soluble receptor; also called insulin-like growth factor-1 soluble receptor

[24] = biological target: T24, rHuman P-Cadherin/Fc Chimera, CF (R&D Systems Cat#861-PC) (human, UniProt P22223 108-654); assay: as above
T24 construct: Bought recombinant protein; Fc part of the bought chimera not given

[25] = biological target: T19, rHuman Erythropoietin R/Fc Chimera, CF …; assay: Multispot ECL (MSD), antigen spotted on plate, Fab 360 nM; blank spot 462
[26] = biological target: T20, rHuman ErbB2/Fc Chimera, CF (R&D …); assay: as above
[27] = biological target: T21, rHuman HGF R/c-MET/Fc Chimera, CF (R&D …); assay: as above
[28] = biological target: T22, rHuman CD44/Fc Chimera, CF (R&D Systems …); assay: as above
[29] = biological target: T23, rHuman IGF-1 sR, CF (R&D Systems …); assay: as above
[30] = biological target: T24, rHuman P-Cadherin/Fc Chimera, CF (R&D …); assay: as above

ECL signal ratio (column head gives no unit) [1]: 1.5
ECL signal ratio (column head gives no unit) [2]: 1.6
ECL signal ratio (column head gives no unit) [3]: 1.8
ECL signal ratio (column head gives no unit) [4]: 1.1
ECL signal ratio (column head gives no unit) [5]: 1.1
ECL signal ratio (column head gives no unit) [6]: 1.4
ECL signal ratio (column head gives no unit) [7]: 1.9
ECL signal ratio (column head gives no unit) [8]: 1.8
ECL signal ratio (column head gives no unit) [9]: 1.6
B1: Fab VH3-23_IGHD2-21*01>3_IGHJ6*01 H100E/S108P/Y113G (EPG) Y109P & V2-13_IGLJ2*01 (Fab, V domains shown)
VH: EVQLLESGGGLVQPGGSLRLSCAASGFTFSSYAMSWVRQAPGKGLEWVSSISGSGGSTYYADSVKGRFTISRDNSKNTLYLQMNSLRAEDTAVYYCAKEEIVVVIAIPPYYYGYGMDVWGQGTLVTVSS
VL: SSELTQDPAVSVALGQTVRITCQGDSLRSYYASWYQQKPGQAPVLVIYGKNNRPSGIPDRFSGSSSGNTASLTITGAQAEDEADYYCNSRDSSGNHLVVFGGGTKLTVL
notes: Fab; NNK mutant of the EPG heavy chain; CH1 (tags) and lambda CL come from the vectors

ECL multispot signal (ratio to blank; column not labelled) [10]: 1.7
ECL multispot signal (ratio to blank; column not labelled) [11]: 1.6
ECL multispot signal (ratio to blank; column not labelled) [12]: 1.8
ECL multispot signal (ratio to blank; column not labelled) [13]: 1.5
ECL multispot signal (ratio to blank; column not labelled) [14]: 1.3
ECL multispot signal (ratio to blank; column not labelled) [15]: 1.4
ECL multispot signal (ratio to blank; column not labelled) [16]: 2
ECL multispot signal (ratio to blank; column not labelled) [17]: 2.2
ECL multispot signal (ratio to blank; column not labelled) [18]: 1.8
B2: Fab VH3-23_IGHD2-21*01>3_IGHJ6*01 H100E/S108P/Y113G Y110E & V2-13_IGLJ2*01 (Fab, V domains shown)
VH: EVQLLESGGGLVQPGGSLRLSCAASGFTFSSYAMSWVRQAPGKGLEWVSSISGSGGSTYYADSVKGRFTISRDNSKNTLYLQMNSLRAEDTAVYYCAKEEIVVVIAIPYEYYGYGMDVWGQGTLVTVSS
VL: SSELTQDPAVSVALGQTVRITCQGDSLRSYYASWYQQKPGQAPVLVIYGKNNRPSGIPDRFSGSSSGNTASLTITGAQAEDEADYYCNSRDSSGNHLVVFGGGTKLTVL
notes: Tested as Fab made in E. coli: VH joined to CH1 (His and Flag tags), VL joined to lambda CL; also called EPG Y110E

ECL signal [19]: 2980
ECL signal [20]: 600
ECL signal [21]: 613
ECL signal [22]: 679
ECL signal [23]: 486
ECL signal [24]: 693
ECL signal [25]: 4720
ECL signal [26]: 647
ECL signal [27]: 581
ECL signal [28]: 740
ECL signal [29]: 535
ECL signal [30]: 636
B3: Fab VH4-28_IGHD7-27*01_IGHJ1*01 & L2_IGKJ1*01 (Fab, V domains shown)
VH: QVQLQESGPGLVKPSDTLSLTCAVSGYSISSSNWWGWIRQPPGKGLEWIGYIYYSGSTYYNPSLKSRVTMSVDTSKNQFSLKLSSVTAVDTAVYYCARTNWGAEYFQHWGQGTLVTVSS
VL: not shown
